Nine molecules from patent US11267868 (dated 2022) can be followed below.

Assay in all cases: SPR
One assay addresses T1, FcgRIIaH (human, UniProt P12318).
T1 chain: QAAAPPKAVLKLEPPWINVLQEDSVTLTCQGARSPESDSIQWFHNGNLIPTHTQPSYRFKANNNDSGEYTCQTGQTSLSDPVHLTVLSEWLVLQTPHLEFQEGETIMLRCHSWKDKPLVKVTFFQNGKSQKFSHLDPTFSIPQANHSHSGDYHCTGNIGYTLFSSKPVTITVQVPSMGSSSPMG

Another assay has as its target T2, FcgRIIb (human, UniProt P31994).
T2 chain: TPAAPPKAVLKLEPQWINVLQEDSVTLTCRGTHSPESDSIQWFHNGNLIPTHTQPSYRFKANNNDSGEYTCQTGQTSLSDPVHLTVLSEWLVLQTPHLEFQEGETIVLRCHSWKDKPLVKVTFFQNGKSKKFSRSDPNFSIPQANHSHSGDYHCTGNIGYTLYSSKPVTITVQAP

A further assay has as its target T3, FcgRIa (human, UniProt P12314).
T3 chain: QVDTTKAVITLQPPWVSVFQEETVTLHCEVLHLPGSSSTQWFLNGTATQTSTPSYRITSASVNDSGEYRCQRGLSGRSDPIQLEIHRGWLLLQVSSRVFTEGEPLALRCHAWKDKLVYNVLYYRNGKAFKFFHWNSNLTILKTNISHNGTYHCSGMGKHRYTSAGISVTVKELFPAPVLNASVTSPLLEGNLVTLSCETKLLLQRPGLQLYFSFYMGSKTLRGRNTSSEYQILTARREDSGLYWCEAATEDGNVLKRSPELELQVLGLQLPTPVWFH

Another assay concerns the target T4, FcgRIIaR (human, UniProt P12318).
T4 chain: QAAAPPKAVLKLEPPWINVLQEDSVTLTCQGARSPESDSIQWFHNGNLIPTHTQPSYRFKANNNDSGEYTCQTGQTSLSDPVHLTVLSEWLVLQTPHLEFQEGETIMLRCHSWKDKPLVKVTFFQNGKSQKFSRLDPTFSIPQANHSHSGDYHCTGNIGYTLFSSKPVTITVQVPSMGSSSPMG

For another assay, the target named is FcgRIIIaV (human, UniProt P08637).
FcgRIIIaV, sequence (P08637 17-208 F176V): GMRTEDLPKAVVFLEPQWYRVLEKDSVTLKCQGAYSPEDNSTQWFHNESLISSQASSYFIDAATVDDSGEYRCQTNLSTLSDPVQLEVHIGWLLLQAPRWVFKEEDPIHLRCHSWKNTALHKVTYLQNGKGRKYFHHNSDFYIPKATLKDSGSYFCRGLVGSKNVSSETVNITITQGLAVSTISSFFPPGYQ

B1: IL6R-P603/IL6R-L (antibody)
chain 1: QVQLQESGPGLVKPSETLSLTCAVSGHSISHDHAWSWVRQPPGEGLEWIGFISYSGITNYNPSLQGRVTISRDNSKNTLYLQMNSLRAEDTAVYYCARSLARTTAMDYWGEGTLVTVSSASTKGPSVFPLAPSSKSTSGGTAALGCLVKDYFPEPVTVSWNSGALTSGVHTFPAVLQSSGLYSLSSVVTVPSSSLGTQTYICNVNHKPSNTKVDKKVEPKSCDKTHTCPPCPAPELLGGDSVMLFPPKPKDTLMISRTPEVTCVVVDVSHEDPEVKFNWYVDGVEVHNAKTKPREEQENSTYRVVSVLTVLHQDWLNGKEYKCKISNKALPAPIEKTISKAKGQPREPQVYTLPPSRDELTKNQVSLTCLVKGFYPSDIAVEWESNGQPENNYKTTPPVLDSDGSFFLYSKLTVDKSRWQQGNVFSCSVMHEALHNHYTQKSLSLSP
chain 2: not shown
The Kd is a measure of binding affinity in units of concentration. For B1, the Kd was determined as 110 µM with FcgRIIaH; 2.7 µM in the assay with FcgRIIb; 0.022 µM with FcgRIa; 47 µM with FcgRIIaR; 83 µM in the assay with FcgRIIIaV.

B2: IL6R-P660/IL6R-L (antibody)
chain 1: QVQLQESGPGLVKPSETLSLTCAVSGHSISHDHAWSWVRQPPGEGLEWIGFISYSGITNYNPSLQGRVTISRDNSKNTLYLQMNSLRAEDTAVYYCARSLARTTAMDYWGEGTLVTVSSASTKGPSVFPLAPSSKSTSGGTAALGCLVKDYFPEPVTVSWNSGALTSGVHTFPAVLQSSGLYSLSSVVTVPSSSLGTQTYICNVNHKPSNTKVDKKVEPKSCDKTHTCPPCPAPELLGGDSVFLFPPKPKDTLMISRTPEVTCVVVDVSHEDPEVKFNWYVDGVEVHNAKTKPREEQYNATYRVVSVLTVLHQDWLNGKEYKCKVNNKALPAPIEKTISKAKGQPREPQVYTLPPSRDELTKNQVSLTCLVKGFYPSDIAVEWESNGQPENNYKTTPPVLDSDGSFFLYSKLTVDKSRWQQGNVFSCSVMHEALHNHYTQKSLSLSP
chain 2: not shown
In the case of B2, the Kd in the assay with FcgRIIaH stood at 110 µM; with FcgRIIb, 5.3 µM; with FcgRIa, 0.0074 µM; with FcgRIIaR, 50 µM; with FcgRIIIaV, 30 µM.

B3: IL6R-P691/IL6R-L (antibody)
chain 1: QVQLQESGPGLVKPSETLSLTCAVSGHSISHDHAWSWVRQPPGEGLEWIGFISYSGITNYNPSLQGRVTISRDNSKNTLYLQMNSLRAEDTAVYYCARSLARTTAMDYWGEGTLVTVSSASTKGPSVFPLAPSSKSTSGGTAALGCLVKDYFPEPVTVSWNSGALTSGVHTFPAVLQSSGLYSLSSVVTVPSSSLGTQTYICNVNHKPSNTKVDKKVEPKSCDKTHTCPPCPAPELFGQDSVMLFPPKPKDTLMISRTPEVTCVVVDVSHEDPEVKFNWYVDGVEVHNAKTKPREEQENSTYRVVSVLTVLHQDWLNGKEYKCKVSNKALPAPIEKTISKAKGQPREPQVYTLPPSRDELTKNQVSLTCLVKGFYPSDIAVEWESNGQPENNYKTTPPVLDSDGSFFLYSKLTVDKSRWQQGNVFSCSVMHEALHNHYTQKSLSLSP
chain 2: not shown
For the molecule B3, the Kd was 130 µM with FcgRIIaH; 4.3 µM in the assay with FcgRIIb; 0.76 µM with FcgRIa; 72 µM with FcgRIIaR; 48 µM with FcgRIIIaV.

B4: IL6R-P690/IL6R-L (antibody)
chain 1: QVQLQESGPGLVKPSETLSLTCAVSGHSISHDHAWSWVRQPPGEGLEWIGFISYSGITNYNPSLQGRVTISRDNSKNTLYLQMNSLRAEDTAVYYCARSLARTTAMDYWGEGTLVTVSSASTKGPSVFPLAPSSKSTSGGTAALGCLVKDYFPEPVTVSWNSGALTSGVHTFPAVLQSSGLYSLSSVVTVPSSSLGTQTYICNVNHKPSNTKVDKKVEPKSCDKTHTCPPCPAPELLGQDSVMLFPPKPKDTLMISRTPEVTCVVVDVSHEDPEVKFNWYVDGVEVHNAKTKPREEQENSTYRVVSVLTVLHQDWLNGKEYKCKVSNKALPHPIEKTISKAKGQPREPQVYTLPPSRDELTKNQVSLTCLVKGFYPSDIAVEWESNGQPENNYKTTPPVLDSDGSFFLYSKLTVDKSRWQQGNVFSCSVMHEALHNHYTQKSLSLSP
chain 2: not shown
In the case of B4, the Kd with FcgRIIaH was 140 µM; in the assay with FcgRIIb, 4 µM; with FcgRIa it was 0.31 µM; in the assay with FcgRIIaR it was 74 µM; with FcgRIIIaV it was 63 µM.

B5: IL6R-P726/IL6R-L (antibody)
chain 1: QVQLQESGPGLVKPSETLSLTCAVSGHSISHDHAWSWVRQPPGEGLEWIGFISYSGITNYNPSLQGRVTISRDNSKNTLYLQMNSLRAEDTAVYYCARSLARTTAMDYWGEGTLVTVSSASTKGPSVFPLAPSSKSTSGGTAALGCLVKDYFPEPVTVSWNSGALTSGVHTFPAVLQSSGLYSLSSVVTVPSSSLGTQTYICNVNHKPSNTKVDKKVEPKSCDKTHTCPPCPAPELLGQDSVMLFPPKPKDTLMISRTPEVTCVVVDVSHEDPEVKFNWYVDGVEVHNAKTKPREEQENSTYRVVSVLTVLHQDWLNGKEYKCKVHNKALPHPIEKTISKAKGQPREPQVYTLPPSRDELTKNQVSLTCLVKGFYPSDIAVEWESNGQPENNYKTTPPVLDSDGSFFLYSKLTVDKSRWQQGNVFSCSVMHEALHNHYTQKSLSLSP
chain 2: not shown
On to B5, for which the Kd in the assay with FcgRIIaH is 61 µM; with FcgRIIb, 4.1 µM; with FcgRIa it was 0.19 µM; in the assay with FcgRIIaR it was 66 µM; with FcgRIIIaV, 36 µM.

B6: IL6R-P732/IL6R-L (antibody)
chain 1: QVQLQESGPGLVKPSETLSLTCAVSGHSISHDHAWSWVRQPPGEGLEWIGFISYSGITNYNPSLQGRVTISRDNSKNTLYLQMNSLRAEDTAVYYCARSLARTTAMDYWGEGTLVTVSSASTKGPSVFPLAPSSKSTSGGTAALGCLVKDYFPEPVTVSWNSGALTSGVHTFPAVLQSSGLYSLSSVVTVPSSSLGTQTYICNVNHKPSNTKVDKKVEPKSCDKTHTCPPCPAPELFGGDSVMLFPPKPKDTLMISRTPEVTCVVVDVSPEDPEVKFNWYVDGVEVHNAKTKPREEQENSTYRVVSVLTVLHQDWLNGKEYKCKVHNKALPAPIEKTISKAKGQPREPQVYTLPPSRDELTKNQVSLTCLVKGFYPSDIAVEWESNGQPENNYKTTPPVLDSDGSFFLYSKLTVDKSRWQQGNVFSCSVMHEALHNHYTQKSLSLSP
chain 2: not shown
Take B6: the Kd with FcgRIIaH was 100 µM; with FcgRIIb it was 2.9 µM; with FcgRIa, 0.7 µM; with FcgRIIaR, 72 µM; with FcgRIIIaV it was 76 µM.

B7: IL6R-P591/IL6R-L (antibody)
chain 1: QVQLQESGPGLVKPSETLSLTCAVSGHSISHDHAWSWVRQPPGEGLEWIGFISYSGITNYNPSLQGRVTISRDNSKNTLYLQMNSLRAEDTAVYYCARSLARTTAMDYWGEGTLVTVSSASTKGPSVFPLAPSSKSTSGGTAALGCLVKDYFPEPVTVSWNSGALTSGVHTFPAVLQSSGLYSLSSVVTVPSSSLGTQTYICNVNHKPSNTKVDKKVEPKSCDKTHTCPPCPAPELLGGDSVMLFPPKPKDTLMISRTPEVTCVVVDVSHEDPEVKFNWYVDGVEVHNAKTKPREEQENSTYRVVSVLTVLHQDWLNGKEYKCKVSNKALPAPIEKTISKAKGQPREPQVYTLPPSRDELTKNQVSLTCLVKGFYPSDIAVEWESNGQPENNYKTTPPVLDSDGSFFLYSKLTVDKSRWQQGNVFSCSVMHEALHNHYTQKSLSLSP
chain 2: not shown
With B7, the Kd in the assay with FcgRIIaH was determined as 86 µM; with FcgRIIb it was 3.1 µM; with FcgRIa, 0.024 µM; with FcgRIIaR, 37 µM; with FcgRIIIaV, 44 µM.

B8: IL6R-P655/IL6R-L (antibody)
chain 1: QVQLQESGPGLVKPSETLSLTCAVSGHSISHDHAWSWVRQPPGEGLEWIGFISYSGITNYNPSLQGRVTISRDNSKNTLYLQMNSLRAEDTAVYYCARSLARTTAMDYWGEGTLVTVSSASTKGPSVFPLAPSSKSTSGGTAALGCLVKDYFPEPVTVSWNSGALTSGVHTFPAVLQSSGLYSLSSVVTVPSSSLGTQTYICNVNHKPSNTKVDKKVEPKSCDKTHTCPPCPAPELLGGDSVMLFPPKPKDTLMISRTPEVTCVVVDVSHEDPEVKFNWYVDGVEVHNAKTKPREEQENSTYRVVSVLTVLHQDWLNGKEYKCKVHNKALPAPIEKTISKAKGQPREPQVYTLPPSRDELTKNQVSLTCLVKGFYPSDIAVEWESNGQPENNYKTTPPVLDSDGSFFLYSKLTVDKSRWQQGNVFSCSVMHEALHNHYTQKSLSLSP
chain 2: not shown
For B8, the Kd was 58 µM with FcgRIIaH; 2.7 µM in the assay with FcgRIIb; 0.018 µM with FcgRIa; 42 µM with FcgRIIaR; 46 µM in the assay with FcgRIIIaV.

B9: IL6R-P734/IL6R-L (antibody)
chain 1: QVQLQESGPGLVKPSETLSLTCAVSGHSISHDHAWSWVRQPPGEGLEWIGFISYSGITNYNPSLQGRVTISRDNSKNTLYLQMNSLRAEDTAVYYCARSLARTTAMDYWGEGTLVTVSSASTKGPSVFPLAPSSKSTSGGTAALGCLVKDYFPEPVTVSWNSGALTSGVHTFPAVLQSSGLYSLSSVVTVPSSSLGTQTYICNVNHKPSNTKVDKKVEPKSCDKTHTCPPCPAPELFGQDSVMLFPPKPKDTLMISRTPEVTCVVVDVSHEDPEVKFNWYVDGVEVHNAKTKPREEQENSTYRVVSVLTVLHQDWLNGKEYKCKVHNKALPHPIEKTISKAKGQPREPQVYTLPPSRDELTKNQVSLTCLVKGFYPSDIAVEWESNGQPENNYKTTPPVLDSDGSFFLYSKLTVDKSRWQQGNVFSCSVMHEALHNHYTQKSLSLSP
chain 2: not shown
For the molecule B9, the Kd was 84 µM with FcgRIIaH; 2.5 µM in the assay with FcgRIIb; 0.22 µM with FcgRIa; 68 µM with FcgRIIaR; 100 µM with FcgRIIIaV.
